According to paper PMC9253517 (The Journal of Experimental Medicine, 2022):

Assays:
[1] = target: T1, SARS-CoV-2 Wuhan-Hu-1 RBD (SARS-CoV-2, Wuhan-Hu-1 (GenBank …, UniProt P0DTC2)); test: BLI; conditions: both partners purified
[2] = target: T1, SARS-CoV-2 Wuhan-Hu-1 RBD; test: cell-based or functional assay

Binder | binding result [1] | neutralisation IC50, Wuhan-Hu-1 pseudovirus [2] [mg/L]
JR043 (antibody, V domains shown) VH: QVQLVQSGAEVKKPGASVKVSCKASGYTFTRNYMHWVRQAPGQGLEWMGIINPSGGSTSYAQKFQGRVTMTRDTSTSTVYMELSSLRSEDTAVYYCARVDSSSWSHCDYWGQGTLVTVSS VL: DIQLTQSPSSLSASVGDRVTITCRASQSISTYLNWYQQNPGKAPKLLIYGASNLQSGVPSRFSGSGSGTDFTLTISSLQPEDFATYYCQQSYSTLEITFGQGTRLEIK | binds | 0.00587
JR177 (antibody, V domains shown) VH: QVQLVESGGGVVQPGRSLRLSCAASGFTLSSYAMHWVRQAPGKGLEWVALILYDGSNKYYADSVKGRFTISRDNSKNTVYLQMNSLRAEDTAVYYCARVRVWGRVVVAASFYYGMDVWGQGTTVTVSS VL: not shown | binds | 0.00328
JR173 (antibody, V domains shown) VH: EVQLVESGGGLVQPGRSLRLSCAASGFTFDDYAMHWVRQAPGKGLEWVSGISWNSGRKGYADSVKGRFTISRDNAKNSLHLQMNSLRAEDTALYYCAKDIQEAIEVSSIGFDYWGQGTLVTVSS VL: QSVLTQPPSVSGAPGQRVTISCTGSSSNIGAGYDVHWYQQLPGTAPKLLIYGNSNRPSGVPDRFSGSKSGTSASLAITGLQAEDEADYYCQSYDSSLSGYAVFGGGTQLTVL | binds | 0.0166
JR039 (antibody, V domains shown) VH: QLQLQESGPGLVKPSETLSLTCTVSGGSISSSSYYWGWIRQPPGKGLEWIGSIYYSGSTYYNPSLKSRVSISVDTSKNQFSLKLSSVTAADTAVYYCARPGPAYYDRSGYYRAEYFQRWGQGTLVTVSS VL: AIRMTQSPSSLSASVGDRVTITCQASQDISDYLSWYQQKPGKAPKLLIYDASNLETGVPSRFSGSGSGTDFTFTISSLQPEDIATYYCQQYDNLPLTFGGGTKVEIK | binds | 0.0219
JR042 (antibody, V domains shown) VH: EVQLVESGGGLIQPGGSLRLSCVASGVTVSSNYMSWVRQAPGKGLEWVSVIYPGGTTYYADSVKGRFTISRDNSKNTLYLQMTSLRAEDTAVYYCARGGDYHYGMDVWGQGTTVTVSS VL: DIQLTQSPSFLSASVGDRVTITCRASQGISSYLAWYQQKPGKAPKLLIYAASTLQSGVPSRFSGSGSGTEFTLTISSLQPEDFATYYCQLLNSYPPTFGQGTKLEIK | binds | 0.0209
JR328 (antibody, V domains shown) VH: EVQLVESGGGLIQPGGSLRLSCAASGVIVSRNYMSWVRQAPGKGLEWVAVIYSGGSTFYADSVKGRFTISRDDSKNTLFLQMNALRAEDTAVYYCARDGDYYGMDVWGRGTTVTVSS VL: DIQLTQSPSFLSASVGDRVTITCRASQGISNYLAWYQQKPGTAPRLLIYAAFTLQSGVPSRFSGSGSGTEFTLTISSLQPEDFATYYCQQLNTYPGFTFGPGTKVDIK | – | 0.0167
JR309 (antibody, V domains shown) VH: EVQLVESGGGLVQPGRSLRLSCAASGFTFDDYAIHWVRQAPGKGLEWVSGSSWNSGTIGYADSVKGRFTISRDNAKNSLYLQMNSLRAEDTALYYCAKDWGTGDYNSYYFDYWGQGTLVTVSS VL: SYELTQPPSVSVAPGKTARITCGGNNIGSKSVHWYQQKPGQAPVVVVYDDSDRPSGNPERFSGSNSGNTATLTIRRVEAGDEADYYCQVWDSNSDQYVFGTGTKVTVL | binds | 0.0155
JR233 (antibody, V domains shown) VH: QVQRVQSGAEVKKPGSSVKVSCKASGGTFSSYAFSWVRQAPGQGLEWMGGIIPILRIADYAQKFQGRVTITADKSTSTAFMELSSLRSEDTAVYYCARGQIELVPAARVDYFDYWGQGTLVTVSS VL: DIQLTQSPSSLSASVGDRVTITCRASQSISSYLNWYQQKPGKAPKLLIYAASSLQSGVPSRFSGSGSGTDFTLTISSLQPEDFATYYCQQSYTTSFGPGTKVDIK | binds | 0.00933
